Columns and labels:
Assay in all cases: SPR
CB6 (human) = biological target: CB6 (human)
RGN10933 (human) = biological target: RGN10933 (human)
RGN10987 (human) = biological target: RGN10987 (human)

Measured: binding relative to WT RBD

RGN10933 (human), sequence (heavy, as listed by the source, chain 1 of 2): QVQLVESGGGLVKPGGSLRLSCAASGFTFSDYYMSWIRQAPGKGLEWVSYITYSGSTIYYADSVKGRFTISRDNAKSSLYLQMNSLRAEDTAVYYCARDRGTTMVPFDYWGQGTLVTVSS
RGN10933 (human), sequence (light, as listed by the source, chain 2 of 2): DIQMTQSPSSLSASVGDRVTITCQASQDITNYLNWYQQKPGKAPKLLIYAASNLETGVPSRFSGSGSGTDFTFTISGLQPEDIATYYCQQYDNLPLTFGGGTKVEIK
RGN10987 (human), sequence (heavy, as listed by the source, chain 1 of 2): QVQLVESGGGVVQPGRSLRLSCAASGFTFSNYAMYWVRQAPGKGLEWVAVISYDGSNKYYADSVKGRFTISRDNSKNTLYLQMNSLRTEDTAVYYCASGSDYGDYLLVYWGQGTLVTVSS
RGN10987 (human), sequence (light, as listed by the source, chain 2 of 2): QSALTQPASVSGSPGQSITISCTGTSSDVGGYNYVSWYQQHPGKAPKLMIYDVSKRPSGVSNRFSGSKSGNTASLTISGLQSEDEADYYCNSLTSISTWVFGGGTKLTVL

RBD A475V-FC fusion protein (from UniProt P0DTC2)
> 50%: CB6 (human) | RGN10933 (human) | RGN10987 (human)

RBD T345I-FC fusion protein (from UniProt P0DTC2)
> 50%: CB6 (human) | RGN10933 (human) | RGN10987 (human)

RBD Y505W-FC fusion protein (from UniProt P0DTC2)
> 50%: CB6 (human) | RGN10933 (human) | RGN10987 (human)
